For this assay, the target named is P. falciparum cytochrome c-2 (PF3D7_1311700), recombinant (P. falciparum) (UniProt Q8I6T6). Description: crystal structure.

A word on the stoichiometry N: it is a count of units in the complex or per binding partner.

For “P. falciparum cytochrome c-2 (PF3D7_1311700), recombinant (from UniProt Q8I6T6 1-159) (natural protein)”, the stoichiometry N amounted to 2.

The record behind these values is article PMC9900762.
